PMC3760765, “A Meiosis-Specific Form of the APC/C Promotes the Oocyte-to-Embryo Transition by Decreasing Levels of the Polo Kinase Inhibitor Matrimony” (PLoS Biology, 2013)

Key:
GST-CycA (Cyclin A) = biological target: T1, GST-CycA (Cyclin A) (UniProt P14785 1-491); experiment: pull-down; purified GST-tagged protein on beads incubated with 5 µl in vitro translation reaction (reticulocyte lysate) in 500 µl IP buffer, 2 h at 4°C; 3 washes; Western blot with anti-Myc 9E10; conditions: one partner purified
T1 construct: Cyclin A; construct not described in the methods
T1 sequence (looked up): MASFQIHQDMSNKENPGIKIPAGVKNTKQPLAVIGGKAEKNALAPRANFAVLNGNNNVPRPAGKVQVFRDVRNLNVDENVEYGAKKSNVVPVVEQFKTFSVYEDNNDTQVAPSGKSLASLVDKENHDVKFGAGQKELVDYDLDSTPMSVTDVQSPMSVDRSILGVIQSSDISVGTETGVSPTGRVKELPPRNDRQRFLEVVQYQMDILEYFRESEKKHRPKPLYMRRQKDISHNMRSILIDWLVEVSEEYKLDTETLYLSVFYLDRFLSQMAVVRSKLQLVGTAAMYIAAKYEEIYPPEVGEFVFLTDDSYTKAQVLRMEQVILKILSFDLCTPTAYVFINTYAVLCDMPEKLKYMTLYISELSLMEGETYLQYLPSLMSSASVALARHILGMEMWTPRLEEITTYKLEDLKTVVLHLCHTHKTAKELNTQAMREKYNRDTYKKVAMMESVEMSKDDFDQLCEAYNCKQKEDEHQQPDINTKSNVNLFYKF

[1] = biological target: T2, GST-tagged Mtrm (Matrimony) (Drosophila melanogaster, UniProt Q23973 1-217); experiment: as above; conditions: one partner purified
T2 construct: mtrm cDNA LD47919 cloned into pGEX6p-1; also called GST-Mtrm; source: expressed and purified from bacteria
T2 sequence (looked up): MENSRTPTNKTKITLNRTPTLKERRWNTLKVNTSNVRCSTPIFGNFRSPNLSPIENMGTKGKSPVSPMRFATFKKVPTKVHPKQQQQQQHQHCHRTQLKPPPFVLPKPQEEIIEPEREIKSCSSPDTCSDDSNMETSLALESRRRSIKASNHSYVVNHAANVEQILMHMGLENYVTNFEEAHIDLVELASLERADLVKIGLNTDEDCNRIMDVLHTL

Binder | fold binding to GST-CycA against binding to GST-Mtrm (GST-CycA (Cyclin A)) | fold binding to GST-Mtrm against 6×Myc-CortΔWD40 [1]
6×Myc-Fzy/Cdc20, in vitro translated (natural protein, Drosophila melanogaster, UniProt Q24044 1-526, looked up, 6×myc-fzy/cdc20 cDNA cloned into pOT2; also called Myc-tagged Fzy/Cdc20; Fizzy; source: in vitro translated (TnT T7 Coupled Reticulocyte Lysate System, rabbit reticulocyte lysate)) MSQFNFVSDLQNALIMDGETRGPAPRWKKKLEASLNGSVNTTRSVLSVSYNTSFSGVQAPTKTPGKSSEGKTKKSNTTPSKTPGGGDRFIPNRAATNFELAHFLVNKDSGDKSDEENDKATSSNSNESNVQASAHKGDRQKLISEVAQVGDSKGGRILCYQNKAPAAPETHNNPLKVVYSIKTPISTKSGSRYIPTTSERILDAPDFINDYYLNLMDWSADNIVAVALGSCVYLWNAQTGNIEQLTEFEEGDYAGSLSWIQEGQILAIGNSTGAVELWDCSKVKRLRVMDGHSARVGSLAWNSFLVSSGSRDGTIVHHDVRAREHKLSTLSGHTQEVCGLKWSTDFKYLASGGNDNLVNVWSAASGGVGTATDPLHKFNDHQAAVRALAWCPWQPSTLASGGGTADRCIKFWNVNNGTLMKSVDSKSQVCSLLFSRHYKELISAHGFANNQLTIWKYPTMVKQADLTGHTSRVLQMAMSPDGSTVISAGADETLRLWNCFAPDPLASKKAVSTSKGKQSVFRQSIR | 155 fold | 
6×Myc-Cortex (full length), in vitro translated (natural protein, Drosophila melanogaster, UniProt Q960N3 1-483, looked up, 6×myc-cort cDNA cloned into pOT2; also called Myc-tagged Cort; source: in vitro translated (TnT T7 Coupled Reticulocyte Lysate System, rabbit reticulocyte lysate)) MFVEMSVCDSPNKNSKLDKKSLTPFKKVRRKNWKQEAAYKSDTSKGQEVSYVGERFIPNRFERENIEFNLKYIGKRKERDILETGVTLTASYWRQSGFISNINRTFGIGERRLFQFSSQQGTRSRVVDNDSADSDWPCNPRARPYAIQNATHEMPGICSPVDYNMMDWSSGGMVAMSSGQDVMLWRNLDESTMVFSVESPTSLKYSPDGKHLAIGCMDRNYPVLDLWEVRSPTEFLVSYRKLFFKSMGYISCIEWSHDGKEVICGTQCGVIIVLAMPTLNTLMQLREHRHTVKKMKFAPTHKYFASSDTDGKIFIFDAVLKVRLLKLDGRSIVFDWHPWTGEDLAVAERSPASIFIFNIPRRQFVASYRRRDDRIVIKTLTYSKITGELLVNVIRRDDADLAVCEILVLASLNRVVDLMSHQDRGTLFLMWNPDGTKIATGGLDDTFSLWNFFPTYKREAILRKQEQKAKDKCSSLSLYKGIR |  | 5.8 fold
